Experiment: soluble on expression in E. coli; label from the status in PepcDB or PDB records

Sequence | soluble on expression in E. coli
MAHHHHHHHRSAAGTIWEFDGGACGARTALVKVDRVDRRYQDLVTRGFNGRFRGRPDVVYVVHTADQVVDAVNQAMAAGQRIAVRSGGHCFEGFVDDPAVRAVIDMSQMRQVFYDSGKRAFAVEPGATLGETYRALYLDWGVTIPAGVCPQVGVGGHVLGGGYGPLSRRDGVVADHLYAVEVVVVDASGRARKVVATSAADDPNRELWWAHTGGGGGNFGIVTRYWFRTPGATGTDPSQLLPKAPTSTLRHIVTWDWSALTEEAFTRIIDNHGAWHQSNSAAGTPYASMHSVFYLNSRAAGQILLDIQIDGGLDGAEALLNDFVAAVNEGTGVEPAVQRSTEPWLRATLANKFDTGGFDRTKSKGAYLRKPWTAAQAATLYRHLSADSQVWGEVSLYSYGGKVNSVPETATATAQRDSIIKVWMSATWMDPAHDDANLAWIREIYREIFATTGGVPVPDDRTEGTFINYPDVDLVDERWNTSGVPWYTLYYKGNYPRLQKVKARWDPRDVFRHALSVRPPG | soluble
MAHHHHHHLPALKLALEYIVPCMNKHGICVVDDFLGKETGQQIGDEVRALHDTGKFTDGQLVSQKSDSSKDIRGDKITWIEGKEPGCETIGLLMSSMDDLIRHCNGKLGSYKINGRTKAMVACYPGNGTGYVRHVDNPNGDGRCVTCIYYLNKDWDAKVSGGILRIFPEGKAQFADIEPKFDRLLFFWSDRRNPHEVQPAYATRYAITVWYFDADERARAKVKYLTGEKGVRVELNKPSDSVGKDVF | soluble
MAHHHHHHMAANEGNQSCMDALSSITFAQLAGPLQPVYGPSRVPRHQQFVDLVTDSSGMSPFIPFGTQGSANSSTAFPVDNAYLSKRAPPESEGQNRAAYYNNSSASMQTPEKVDKPQMLRQVSVGAPTPSSGMGMTASPATVCRYITHATPGSALLDETCTRTYLRSAPMNFVASTGITTDNAIGAVSNAVLSAAAAALPSVKVSIDDKPTSLAIELEQAYEEHVHESKRRVGDKVKRKEKKVLVTVGFPGVDNVPQMISDGTEEQLLNKEEVEQGKRRRERRQSRGKNKQKGDNNNNNCIFHDGDKFVSNFSSIHADNESHGECGDRKFLVTLRCHGHRDVTAICCLRLSKGKYVIFEADRGVDLGEVINVKELISEPSGNSAPAQVLRCALDEEVEDWKGPLVERENEAVEECRHVCEQLGLTIRVVGAAYQFDRQKLTFMYESDDRVDFRALLQVMFSKFRCRIWMERRGRGHQDNDAHTG | not soluble
MAHHHHHHMADLRDELDATALFGSGYVCIVGPPSSGKTTLILEYLVARERQAVHSGDGDAAAFCMEYVSARSAPHELLRHLTYRLLPHARRRRLSYECTPLEFSASLVEWVEAHPGQSELHLVVDDADALEYSAEEMNLWLSHYLRAPAEQRCTVILWLISELPLRLSNCFRYHFIARPEANSIVQWLHHQFEEERRLLAGLESEEDDSEHTVNGAPMTTLSADEVNRVVLDAFTYYATHQPMCSSVVSRDVRLLVQRVYQILPPLLLEVAATTSAVPGESGEAAVSASTTADAVKKLNARHFAAAWSQYRSDGGGGTSSAMAVSGAAASAQNTLVMALKRLGYSAVLLAFAAFYGGAVPKRQQHQVFGRIGSGERQPPLHEAKGQSHKAAVLTASAHVVTLRRLGFLYDAMLRMCTPHIDPLEFTTADVALQYVQGFVAWGLLTPVVSQRHRSYHCWIPVSTAPAVGA | not soluble
MAHHHHHHMAEDTITFLRTVGKLKETDRTGWVEHGIPNPESVSDHMYRVAVMCMMCPDEKLDRNKLIRMALCHDAGESIVGDISPKMGVSKEDKYNQEKAAVLHLTGLLEKESPLSRELHELWEEYEAQHTPEAQFLKDIDLLEMVAQAHAYELAHPKKDLSSFFVSGEKIKHPWARNIYETLLRTRSSEK | soluble
MAHHHHHHMAKAIGDGDTGDAWWANPEHLAAIDATAAAEAVVSVPHQPEKNTGTGCSSRITAMRYYMKPDTWTQTLLSDEGETARENRTDGEVPHSGSASTGAVTSSDPRGCNSDAHVHHQATSSLLSTASSVVTTTATEEASSLPAASSPLHGLPLHQLIEQHAALVRRLVQVLAPQRQTIPHVIRELCTTRVTSPSSAVASRVCVLPSMDASNAEPMQYTERDVAAAVEQLTSSHPRQPRLRELKSDGYLLMNLEGFADGKTRHKAVNRAYPALALHWPASVQQMDAMERYVDRDVVLDTRKRHPELSGEGSDKKQGQKRDRSRSSTSSNASGADEDGAHKARAPGYTSSPPSPPLGMAASPKRTAPTTSSRRFFQSLREYPRSLEHGDLHAWARGTAAQQARDCLQAATTLTQSSTSTVDGSSDAATLGPLPITNEEDVAVLRCQYDALAAAESVVEKQLRAYSDTVQELRGWYRGELCTQQFRYELEAWLRTQEESRAVLTDLYAQMHAMRYSLQRDLSNYLHLHALGVL | soluble
MAHHHHHHMAKVKMNPKLSSFTANAYEKKRQVGMYSKYIVDANPSGKDPSSSQTNKGNEYEEEDIVEKLRKREQSKQGGDYFMNAYKYTQPSAIIDYSSGEEQEYSQLLKKPKCPQCGVKNCVCGFMRSGGRRAR | soluble
MAHHHHHHMALEIDIDNVISKLIEVRGTRPGKNVNLTENEIKILCLSSREIFLNQPILLELEAPIKICGDIHGQFYDLLRLFEYGGFPPDANYLFLGDYVDRGKQSLETICLLLAYKIKYPENFFLLRGNHECASINRIYGFYDECKRRYSVKLWKTFIDCFNCLPVAAIIDEKIFCMHGGLSPELNNMEQIRKITRPTDVPDNGLLCDLLWSDPEKEINGWGENDRGVSFTFGQDVVHNFLRKHELDLICRAHQVVEDGYEFFAKRQLVTLFSAPNYCGEFDNAGAMMSVDETLMCSFQILKPVEKKKAAN | not soluble
MAHHHHHHMAQNPWFVKKSKTLRTSQLEKFINKFNEEYEHLMHMTRFKYIKRTLESIKENSDLIINKKTFSILRISCVAQLQPKYLNKIDDGISVYLSNFMLKANHDVEGFCLCFNKIKLKEKESRVMNNDPSIMFVKISFKLLILVLKENYEIKAKINKIEPLKIHLDIFGIVEAIFSEDMFKDFHYDSRNNRFRREGKFFSLYDIVLFTIKKITYGDNGANVKVIGYF | not soluble
MAHHHHHHMASGGSVIGVKYNGGVLLACDTLLSYGSLAKWPNIPRMKLVGAYTVMCATGDYADFQEMTTMIENHVNRQQMYGGGALTPNEVFCYLQRHVYHKRSQFEPCLCRFVVAGCHGGEPFLGGVDDVGTRWTDDCVAAGYGAYIALPLLRQALEKPGGLTREEAIRVIKDCLRVLFYRECRAINKFQIADATSDMVSIGEPFEVETNWEYDGFCFEKTAIIR | not soluble
MAHHHHHHMCLLIIEHLFYSPCTVTTVLSLKLFGGGEKTGKMSDVPKSQVGTDAKVAVAKKYTGEYYVKGMVGDKKSFAIEHSRGRQKKHTVNEFCVGDAIGRGAFAEVFQCWRPEEPHIVYAMKKIRKDLIVKRKQSLNVHTERDLLSDAKLRQKRVSCPWITDLVVAFQDQDFLYIVTEYCSGGDLISWLIRYDVFPEETARFYFVELVLALNALHKMGYVHRDVKPDNVLIDREGHVKLADFGLSKRDPDQAESTSVADDSYLTEDVTVDDDVKKRFRDKKERKVMFFSTVGSPAYIAPEVLIGRGYDYSCDWWSAGVILYEMIFGYPPFFNDNNTATAKKIIQFKEHLEFPKDQTTVSKEAIDLISHLIADSKERYGFEEIIRHPFCKGVPLTDSIRNEKAPFSVELNSPRDLQYFEPAPDNADIQKQPMTAVSREDQSVFVGFTSKLCDRNQSTTWSRALGRFHELQNFSDDD | not soluble
MAHHHHHHMDAERGCRQCGQQGHSASQCRIKKYLCRDCGGMHDTRDCIFSHVGEDWYEFYDPKTRHVYYANSDESQIQWNPPTHELDTIYWYCSRCQVMISAKFRECLLCHSIRPESKQQETLTTDSNSDSSSSSSTSSSSSSTDTSCISRSSSSSGSASSSDSSSNDDDKRSAAGRLRDRAP | soluble
MAHHHHHHMDYYRLLADIGHTYLQLIPSTAHVEKVTGLAARYCIFTITHTQMLLHCLMLWKEARLGDGGGFIDYAKVRNLKICSGAAEHTAQSNADAHSSNEGKQKWRTIDRTASLLFTLQLLEANCRYYCLVFLANYCALLLRSYSCLTDQRKVNRVHANVVEHLDMVSRLVLDLAEEYPNEYLSRLIMANLPKPSNFDRECLSSMGASSHMGSQKILSFGNDQHRHLYASGYPWSPTQSALIPLILARTVRLTVQENVSRHSQAQLRSPAERLSYHYTRWHFNSGLVIVPGCSLYMLKKSLPGFVPGKSTFAHYATMAEHEELHVPRAAADVHWQRGSAAVPVPEDGGGAAPGSHRNPRKSEDSADAEKREALTKKCEERLIKKRRHINTDLHLSDERTCVALCLEEACALALPSLLLSCVLQKATREPHFREFMNNAMNLVLGLYGPASSEWHMMASFLRKHLEG | not soluble
MAHHHHHHMEDGVIISGDYIQMEKDKVKRINEHNFEQVHDVESDNLYRSKCSGILLKTPYYPYKYDIMNTSYKYMPKVGDLVIGIVKSKKLDYYQMDINCNCECIIHKIESFKYATKNSFPNLANGTLLYMIVEKINLDNNSVVASCINSSDVKSWINYENYLGELVDGYMFPVSISYAKSLIGDKCYLLDLIGADVSYEVAVGHNGR | not soluble
MAHHHHHHMEKYKNILEKLEWYKNKSSEKYEFGIYEIDKREVFITTKYSYGFVNNKPLLPGHILLTTLKKKKHYNDLDIEEIIDINLLCNFMCYIMGNLFNTTDFSIAIQDGKEAGQTVDHVHIHIIPRKINDYKNNDNIYNDMNKINLGYGKNIICNSCNNTINVCSQNEIERNFKLEEFNTSIRSIEQMEEEANLIKSYINEKFSS | not soluble
MAHHHHHHMELEEFWLTDGSISDWGEVKKFCGFANTLRTIYVERNPIEQDKRYRDKVYMNLPFVTQIDSWPVVNKDNLEGDRLIQRRAS | soluble
MAHHHHHHMELNKLCSFLLRGNISHCENAPTGENAPKGENAQTGENAPKSENPPKSEHSQALFQDASGGKNNDSILDVIKKIPINPFIDSNEDLNKYKYGVEKKKIQRYTGVQVYEEEDKDHKKNQPVDYPFPVSKSVVFEKNKVNKSEDRININYSNIASDLYPEEGFKTPNRKKHFSSDWEMLLAHNHGLYNFKNTDHNTIVNKDMYALNTENDIRNKLNLYVERINVDNPNDACKYLAIEEYKCLLTHSFHMNPDVSNQKCVKWFNEYMQCKWDEHKLNYGYNYIENRRNKKSKAYIAAPDYQYS | not soluble
MAHHHHHHMENHKDDAVLLKHGWCEMLKGGVIMDVKSVEQAKIAEEAGAIGVMVLENIPSELRNKEGVARSVDPSKVEEIKKCVSINVLAKVRIGHFVEAQILEELKIDMIDESEVLTIADEMHHIDKHKFKTPFVCGCTNLGEALRRISEGASMIRTKGEAGTGNIIEAIKHIRTVNNEIKYLCSLSDSEVYHFAKKINAPIDLVLLTKKLKRLPVVNFAAGGVATPADAAMCMQLGMDGVFVGSGIFESENPRKMAASIVSAVSNFNNPKILLDVSMNLGKAMCGSTRVSDKWKNKNEEHTKFLTPQ | not soluble
MAHHHHHHMEREKHENMLMAIARDFNSVDDLIETFLTFLENKTDYFHVMLNDKDVETLSEKYDGAILKNLLNNNNCGFKAHSREQLLIKSFRKHQINYIMRKQPYIIENEEIKNKYLTSCDELKKIKYMPTTKDMNKEKQENSTKVNSDVHSLNVTQENHISIWNGGKTDKYYWNQALKEINLEMPFNEEIKPNDVNVQITNTNIKIYHCGVLKLEGMFYEEVDKQECVWSIEDKKNIIIYLEKKRENWWPCVIKGDTEIDTKNIESKKNLTDFDEKTQGQIRKFLLEQRMKNEGIPTPEDLRKQNIINNVLSSKGEPFGR | not soluble

— the DeepSol protein solubility set
